Test results published in US20260069689A1.

Biological target: T1, human CD20 on Jurkat cells (human) (UniProt P11836)
T1 sequence: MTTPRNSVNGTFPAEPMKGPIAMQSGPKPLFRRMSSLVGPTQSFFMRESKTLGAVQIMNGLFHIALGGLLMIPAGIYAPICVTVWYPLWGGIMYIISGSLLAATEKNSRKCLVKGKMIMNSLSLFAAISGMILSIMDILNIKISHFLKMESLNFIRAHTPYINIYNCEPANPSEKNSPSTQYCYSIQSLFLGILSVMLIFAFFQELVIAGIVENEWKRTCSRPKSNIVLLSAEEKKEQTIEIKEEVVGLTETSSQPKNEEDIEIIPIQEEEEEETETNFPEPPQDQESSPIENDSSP
Test: cell-based or functional assay

casirivimab + imdevimab
Max ADCP (%), MDM donor #1, Jurkat/hCD20 cells: 15.5% | Max ADCP (%), MDM donor #2, Jurkat/hCD20 cells: 15.1% | Max cytotoxicity (%), ADCC, NK donor #1, Jurkat/hCD20 cells: 0.8% | Max cytotoxicity (%), ADCC, NK donor #2, Jurkat/hCD20 cells: 4.8% | Max cytotoxicity (%), ADCC, NK donor #3, Jurkat/hCD20 cells: 0%
